From doi:10.1101/2021.03.31.438001

Target: Pr17 (OAD22177.1), secreted protein of Candidatus Thiomargarita nelsonii (Candidatus Thiomargarita nelsonii)
Experiment: non-reducing SDS-PAGE

Pr17 (OAD22177.1), secreted protein of Candidatus Thiomargarita nelsonii (natural protein)
stoichiometry N: 2
